Measurements published in patent US7507803B2, “Optimized multi-epitope constructs and uses thereof” (priority 2002, dated 2009).

Test system: H2^bxd mice
Assay: HTL responses, primary IFN-γ ELISPOT on CD4 T cells
Type: in vivo, mouse
Description: H2^bxd mice were immunized intramuscularly with 100 μg of a vaccine HBV HTL epigene construct or the individual peptides emulsified in CFA. Eleven days after the immunization CD4 T cells were purified from splenocytes and HTL responses were measured using a primary IFN-γ ELISPOT assay.
Eleven days after immunization, no booster immunizations were administered, CD4 T cells were purified from the spleen, and peptide specific HTL responses were measured in a primary γ-IFN ELISPOT assay.
The immunogenicity of the HTL epitopes was also characterized using H2^bxd mice.
This construct was tested for immunogenicity in H2^bxd mice (FIG. 28B), measuring IFN-γ production by CD4+ T-lymphocytes using an ELISPOT assay.

B1: HBV HTL: epigene construct encoding 16 HBV HTL epitopes with GPGPG spacers, SEQ ID NO: 73/74 (nucleic acid)
DNA: ATGGGAACTTCTTTTGTGTATGTCCCTTCCGCTCTGAACCCAGCAGACGGACCCGGGCCTGGCCTGTGCCAGGTCTTCGCCGACGCAACTCCCACAGGGTGGGGGCTGGGGCCAGGACCAGGCAGGCACTACCTGCATACTCTGTGGAAGGCAGGAATCCTCTATAAAGGGCCCGGCCCAGGCCCTCACCACACCGCCCTGAGGCAGGCCATCCTGTGCTGGGGGGAGCTCATGACCCTGGCCGGACCTGGACCCGGGGAGAGCAGACTGGTGGTGGATTTCAGCCAATTCAGCAGAGGAAACGGACCCGGCCCTGGGCCTTTTCTGCTGGCTCAGTTTACATCTGCTATTTGTTCTGTGGTCGGCCCCGGGCCCGGACTCGTGCCTTTCGTGCAGTGGTTCGTGGGACTGTCCCCTACAGTCGGGCCCGGCCCAGGGCTGCATCTGTACTCCCACCCAATCATCCTCGGCTTCCGCAAGATTGGACCCGGCCCAGGCTCCAGCAATCTCTCCTGGCTCTCTCTGGACGTGTCTGCCGCCTTTGGCCCTGGACCAGGCCTGCAAAGCCTGACTAATCTGCTCAGCAGCAACCTGTCCTGGCTGGGACCTGGCCCAGGGGCTGGCTTCTTTCTGCTCACCCGGATTCTCACAATTCCCCAGTCCGGACCAGGACCAGGAGTCAGTTTCGGGGTGTGGATCAGGACCCCTCCTGCTTATAGACCACCCAATGCTCCAATCGGCCCCGGCCCTGGCGTCGGGCCACTGACCGTGAATGAGAAGCGCCGGCTGAAGCTGATCGGCCCTGGCCCTGGCAAGCAGTGCTTTCGCAAACTGCCCGTGAACAGACCTATTGATTGGGGCCCCGGCCCTGGAGCAGCCAACTGGATTCTCAGGGGAACAAGCTTCGTCTACGTGCCCGGGCCCGGACCAGGGAAGCAGGCTTTTACCTTCTCTCCCACTTACAAGGCCTTCCTCTGTGGGCCAGGCCCCGGCGCCAAGTTTGTGGCAGCATGGACCCTCAAAGCCGCTGCCTGA
modifications: Hepatitis B virus
- Epitopes with responses as vigorous as those induced by peptides emulsified in CFA (%) (100 μg i.m., IFN-γ production by CD4+ T-lymphocytes): 50%
- Epitopes that failed to induce a response (mouse, in vivo): two
- Epitopes with responses as vigorous as those induced by peptides emulsified in CFA (fraction of epitopes tested) (mouse, in vivo): 6/12
